Numbering of substitutions follows the chain as printed. Numbers in names are those of the source.
B1: equine IgG7 D312K mutant (antibody, part only; not given: variable domains, not shown: another chain or arm of the molecule)
constant: ASTTAPKVFPLASHSAATSGSTVALGCLVSSYFPEPVTVSWNSGALTSGVHTFPSVLQSSGLYSLSSMVTVPASSLKSQTYICNVAHPASSTKVDKKIVIKECGGCPTCPECLSVGPSVFIFPPKPKDVLMISRTPTVTCVVVDVGHDFPDVQFNWYVDGVETHTATTEPKQEQNNSTYRVVSILAIQHKKWLSGKEFKCKVNNQALPAPVQKTISKPTGQPREPQVYVLAPHRDELSKNKVSVTCLVKDFYPTDIDIEWKSNGQPEPETKYSTTPAQLDSDGSYFLYSKLTVETNRWQQGTTFTCAVMHEALHNHYTEKSVSKSPGK
B2: equine IgG7 D312M mutant (antibody, part only; not given: variable domains, not shown: another chain or arm of the molecule)
constant: B1 constant with K191M
B3: equine IgG7 Y436S mutant (antibody, part only; not given: variable domains, not shown: another chain or arm of the molecule)
constant: B1 constant with K191D, Y317S
B4: equine IgG7 D312R mutant (antibody, part only; not given: Variable domains, not shown: another chain or arm of the molecule)
constant: B1 constant with K191R
B5: equine IgG7 D312Y mutant (antibody, part only; not given: variable domains, not shown: another chain or arm of the molecule)
constant: B1 constant with K191Y
B6: equine IgG7 D312L mutant (antibody, part only; not given: variable domains, not shown: another chain or arm of the molecule)
constant: B1 constant with K191L
B7: equine IgG7 T286A mutant (antibody, part only; not given: variable domains, not shown: another chain or arm of the molecule)
constant: B1 constant with T165A, K191D
B8: equine IgG7 T286S mutant (antibody, part only; not given: variable domains, not shown: another chain or arm of the molecule)
constant: B1 constant with T165S, K191D
B9: equine IgG7 Y436R mutant (antibody, part only; not given: variable domains, not shown: another chain or arm of the molecule)
constant: B1 constant with K191D, Y317R
B10: equine IgG7 D312P mutant (antibody, part only; not given: variable domains, not shown: another chain or arm of the molecule)
constant: B1 constant with K191P
B11: equine IgG7 T286Q mutant (antibody, part only; not given: variable domains, not shown: another chain or arm of the molecule)
constant: B1 constant with T165Q, K191D
B12: equine IgG7 D312W mutant (antibody, part only; not given: variable domains, not shown: another chain or arm of the molecule)
constant: B1 constant with K191W
B13: equine IgG7 Y436N mutant (antibody, part only; not given: Variable domains, not shown: another chain or arm of the molecule)
constant: B1 constant with K191D, Y317N
B14: equine IgG7 T286H mutant (antibody, part only; not given: variable domains, not shown: another chain or arm of the molecule)
constant: B1 constant with T165H, K191D
B15: equine IgG7 Y436D mutant (antibody, part only; not given: Variable domains, not shown: another chain or arm of the molecule)
constant: B1 constant with K191D, Y317D
B16: equine IgG7 T286I mutant (antibody, part only; not given: variable domains, not shown: another chain or arm of the molecule)
constant: B1 constant with T165I, K191D
B17: equine IgG7 D312S mutant (antibody, part only; not given: variable domains, not shown: another chain or arm of the molecule)
constant: B1 constant with K191S
B18: equine IgG7 T286G mutant (antibody, part only; not given: variable domains, not shown: another chain or arm of the molecule)
constant: B1 constant with T165G, K191D
B19: equine IgG7 D312Q mutant (antibody, part only; not given: variable domains, not shown: another chain or arm of the molecule)
constant: B1 constant with K191Q
B20: equine IgG7 Y436G mutant (antibody, part only; not given: variable domains, not shown: another chain or arm of the molecule)
constant: B1 constant with K191D, Y317G
B21: equine IgG7 D312T mutant (antibody, part only; not given: variable domains, not shown: another chain or arm of the molecule)
constant: B1 constant with K191T
B22: equine IgG7 Y436M mutant (antibody, part only; not given: variable domains, not shown: another chain or arm of the molecule)
constant: B1 constant with K191D, Y317M
B23: equine IgG7 T286D mutant (antibody, part only; not given: Variable domains, not shown: another chain or arm of the molecule)
constant: B1 constant with T165D, K191D
B24: equine IgG7 Y436E mutant (antibody, part only; not given: variable domains, not shown: another chain or arm of the molecule)
constant: B1 constant with K191D, Y317E
B25: equine IgG7 Y436W mutant (antibody, part only; not given: Variable domains, not shown: another chain or arm of the molecule)
constant: B1 constant with K191D, Y317W
B26: equine IgG7 Y436I mutant (antibody, part only; not given: Variable domains, not shown: another chain or arm of the molecule)
constant: B1 constant with K191D, Y317I
B27: equine IgG7 Y436A mutant (antibody, part only; not given: Variable domains, not shown: another chain or arm of the molecule)
constant: B1 constant with K191D, Y317A
B28: equine IgG7 D312V mutant (antibody, part only; not given: variable domains, not shown: another chain or arm of the molecule)
constant: B1 constant with K191V
B29: equine IgG7 T286R mutant (antibody, part only; not given: variable domains, not shown: another chain or arm of the molecule)
constant: B1 constant with T165R, K191D
B30: equine IgG7 T286K mutant (antibody, part only; not given: variable domains, not shown: another chain or arm of the molecule)
constant: B1 constant with T165K, K191D
B31: equine IgG7 T286E mutant (antibody, part only; not given: variable domains, not shown: another chain or arm of the molecule)
constant: B1 constant with T165E, K191D
B32: equine IgG7 Y436V mutant (antibody, part only; not given: Variable domains, not shown: another chain or arm of the molecule)
constant: B1 constant with K191D, Y317V
B33: equine IgG7 Y436C mutant (antibody, part only; not given: variable domains, not shown: another chain or arm of the molecule)
constant: B1 constant with K191D, Y317C
B34: equine IgG7 T286F mutant (antibody, part only; not given: variable domains, not shown: another chain or arm of the molecule)
constant: B1 constant with T165F, K191D
B35: equine IgG7 Y436K mutant (antibody, part only; not given: variable domains, not shown: another chain or arm of the molecule)
constant: B1 constant with K191D, Y317K
B36: equine IgG7 T286M mutant (antibody, part only; not given: variable domains, not shown: another chain or arm of the molecule)
constant: B1 constant with T165M, K191D
B37: equine IgG7 Y436Q mutant (antibody, part only; not given: Variable domains, not shown: another chain or arm of the molecule)
constant: B1 constant with K191D, Y317Q
B38: equine IgG7 D312N mutant (antibody, part only; not given: Variable domains, not shown: another chain or arm of the molecule)
constant: B1 constant with K191N
B39: equine IgG7 T286L mutant (antibody, part only; not given: Variable domains, not shown: another chain or arm of the molecule)
constant: B1 constant with T165L, K191D
B40: equine IgG7 T286C mutant (antibody, part only; not given: variable domains, not shown: another chain or arm of the molecule)
constant: B1 constant with T165C, K191D
B41: equine IgG7 Y436T mutant (antibody, part only; not given: variable domains, not shown: another chain or arm of the molecule)
constant: B1 constant with K191D, Y317T
B42: equine IgG7 Y436F mutant (antibody, part only; not given: variable domains, not shown: another chain or arm of the molecule)
constant: B1 constant with K191D, Y317F
B43: equine IgG7 T286P mutant (antibody, part only; not given: variable domains, not shown: another chain or arm of the molecule)
constant: B1 constant with T165P, K191D

target: equine FcRn (large alpha subunit p51) in complex with equine beta-2-microglobulin (equine) (UniProt F6XZ61); test: SPR (Biacore), pH 6
Chain of UniProt F6XZ61 (F6XZ61 entry or part of it, one chain of several): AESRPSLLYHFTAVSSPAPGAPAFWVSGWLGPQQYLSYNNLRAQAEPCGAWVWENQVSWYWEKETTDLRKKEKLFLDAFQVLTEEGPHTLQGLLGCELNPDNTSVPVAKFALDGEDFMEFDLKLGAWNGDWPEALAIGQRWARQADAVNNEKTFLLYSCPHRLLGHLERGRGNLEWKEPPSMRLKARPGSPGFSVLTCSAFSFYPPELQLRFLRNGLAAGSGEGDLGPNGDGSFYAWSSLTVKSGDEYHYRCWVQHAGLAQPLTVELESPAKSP

Kd | Binder
16.4 nM | B1
6.1 nM | B2
169 nM | B3
9 nM | B4
9.4 nM | B5
5.7 nM | B6
110 nM | B7
17.1 nM | B8
7.7 nM | B9
8 nM | B10
7.7 nM | B11
13.2 nM | B12
65.5 nM | B13
16 nM | B14
11.6 nM | B15
15.8 nM | B16
9.6 nM | B17
18.2 nM | B18
13.6 nM | B19
51.7 nM | B20
9.9 nM | B21
5.5 nM | B22

Kd | Binder
47.5 nM | B23
13.4 nM | B24
28.2 nM | B25
25.1 nM | B26
13.3 nM | B27
11.3 nM | B28
7.8 nM | B29
20.6 nM | B30
35.5 nM | B31
6.7 nM | B32
12.5 nM | B33
7.8 nM | B34
74 nM | B35
19.3 nM | B36
9.1 nM | B37
25.3 nM | B38
14 nM | B39
84.4 nM | B40
36.2 nM | B41
9.3 nM | B42
6.9 nM | B43
